{"source": "patent EP1226177B1", "about": "(GENENTECH, INC., dated 2008)", "binders": {"B1": {"name": "anti-PSCA monoclonal antibody 5F2.4H4.1E3 (antibody, V domains shown)", "VH": "QVQVQQPGAELVKPGAPVKLSCKASGYTFTNYWLNWVKQRPGRGLEWIGRIDPSDSEIHYDQKFKDKATLTVDKSSSTAYIQLSSLTSEDSAVYYCALTGIYAMAYWGQGTSVTVSS", "VL": "DIVMTQAAPSVPVTPGESVSISCRSSKSLLHSNGNTYLYWFLQRPGQSPQLLIYRMSNLASGVPDRFSGSGSGTAFTLRISRVEAEDVGVYYCLQHLEYPYTFGGGTKLELKR", "notes": "also called 2403; Mab 2403"}}, "target": "T1, gD-huPSCA expressed on the surface of transfected cells (Herpes Simplex virus; human, UniProt O43653 12-114)", "T1 construct": "domain: 25 amino acids of the mature gD; also called gD-PSCA; gDPSCA", "test": "cold competition of 125I-Mab 2403 by unlabeled Mab 2403 on PC3.gD.hu PSCA cells, four parameter fit (m3 = IC50)", "data": [{"binder": "B1", "values": [{"measurement": "IC50", "value": 13, "unit": "nM"}]}]}
